In publication PMC6202329:

Assays:
Assay in all cases: complementary split luciferase
Conditions in all cases: n = 5; parent: est. 1.0; read off a plot
[1] = biological target: ARAF(DDEE/L358M/R362H/APE) fused to Nluc or Cluc (UniProt P10398)
[2] = biological target: ARAF(DDEE/L358M/R362H) fused to Nluc or Cluc (UniProt P10398)
[3] = biological target: ARAF(DDEE/L358M/APE) fused to Nluc or Cluc (UniProt P10398)
[4] = biological target: ARAF(DDEE/L358M) fused to Nluc or Cluc (UniProt P10398)

ARAF (wild type) fused to Nluc or Cluc (from UniProt P10398) DGEE; L358M; APE; R362H
response [1]: 3.6

ARAF (wild type) fused to Nluc or Cluc (from UniProt P10398) DGEE; L358M; R362H
response [2]: 1.1

ARAF (wild type) fused to Nluc or Cluc (from UniProt P10398) DGEE; L358M; APE
response [3]: 5.4

ARAF (wild type) fused to Nluc or Cluc (from UniProt P10398) DGEE; L358M
response [4]: 3.3
